First the molecules themselves.
B1: Anti-mCD40-hIgG1 (antibody)
heavy: not shown
light: DTVLTQSPALAVSPGERVTISCRASDSVSTLMHWYQQKPGQQPKLLIYLASHLESGVPARFSGSGSGTDFTLTIDPVEADDTATYYCQQSWNDPWTFGGGTKLELKRTVAAPSVFIFPPSDEQLKSGTASVVCLLNNFYPREAKVQWKVDNALQSGNSQESVTEQDSKDSTYSLSSTLTLSKADYEKHKVYACEVTHQGLSSPVTKSFNRGEC
notes: Chimeric anti-murine CD40 antibody, heavy chain constant region G1
B2: Anti-mDR5-hIgG2 (antibody)
heavy: QIQLQESGPGLVKPAQSLSLTCSITGFPITAGGYWWTWIRQFPGQKLEWMGYIYSSGSTNYNPSIKSRISITRDTAKNQFFLQLNSVTTEEDTAIYYCARAGTSYSGFFDSWGQGTLVTVSSASTKGPSVFPLAPCSRSTSESTAALGCLVKDYFPEPVTVSWNSGALTSGVHTFPAVLQSSGLYSLSSVVTVPSSNFGTQTYTCNVDHKPSNTKVDKTVERKCCVECPPCPAPPVAGPSVFLFPPKPKDTLMISRTPEVTCVVVDVSHEDPEVQFNWYVDGVEVHNAKTKPREEQFNSTFRVVSVLTVVHQDWLNGKEYKCKVSNKGLPAPIEKTISKTKGQPREPQVYTLPPSREEMTKNQVSLTCLVKGFYPSDIAVEWESNGQPENNYKTTPPMLDSDGSFFLYSKLTVDKSRWQQGNVFSCSVMHEALHNHYTQKSLSLSPGK
light: DIQVTQSPSLLSASFGDKVTINCLVTQDITYYLSWYQQKSGQPPTLLIYNGNSLQSGVPSRFSGQYSGRTFTLSLSSLEPEDAGTYYCLQHYSVPFTFGGGTRLEIKRTVAAPSVFIFPPSDEQLKSGTASVVCLLNNFYPREAKVQWKVDNALQSGNSQESVTEQDSKDSTYSLSSTLTLSKADYEKHKVYACEVTHQGLSSPVTKSFNRGEC
notes: Chimeric anti-murine DR5 antibody, heavy chain constant region G2; also called Anti-mDR5-IgG2
B3: Anti-mDR5-hIgG1(V11) (antibody)
heavy: QIQLQESGPGLVKPAQSLSLTCSITGFPITAGGYWWTWIRQFPGQKLEWMGYIYSSGSTNYNPSIKSRISITRDTAKNQFFLQLNSVTTEEDTAIYYCARAGTSYSGFFDSWGQGTLVTVSSATTKGPSVFPLAPSSKSTSGGTAALGCLVKDYFPEPVTVSWNSGALTSGVHTFPAVLQSSGLYSLSSVVTVPSSSLGTQTYICNVNHKPSNTKVDKRVEPKSCDKTHTCPPCPAPELLGDDSVFLFPPKPKDTLMISRTPEVTCVVVDVSDEDGEVKFNWYVDGVEVHNAKTKPREEQYNSTYRVVSVLTVLHQDWLNGKEYKCKVSNKALPRPIEKTISKAKGQPREPQVYTLPPSRDELTKNQVSLTCLVKGFYPSDIAVEWESNGQPENNYKTTPPVLDSDGSFFLYSKLTVDKSRWQQGNVFSCSVMHEALHNHYTQKSLSLSPGK
light: DIQVTQSPSLLSASFGDKVTINCLVTQDITYYLSWYQQKSGQPPTLLIYNGNSLQSGVPSRFSGQYSGRTFTLSLSSLEPEDAGTYYCLQHYSVPFTFGGGTRLEIKRTVAAPSVFIFPPSDEQLKSGTASVVCLLNNFYPREAKVQWKVDNALQSGNSQESVTEQDSKDSTYSLSSTLTLSKADYEKHKVYACEVTHQGLSSPVTKSFNRGEC
notes: Chimeric anti-murine DR5 antibody, heavy chain constant region V11(H1)
B4: Anti-mDR5-IgG2(V11) (antibody)
heavy: QIQLQESGPGLVKPAQSLSLTCSITGFPITAGGYWWTWIRQFPGQKLEWMGYIYSSGSTNYNPSIKSRISITRDTAKNQFFLQLNSVTTEEDTAIYYCARAGTSYSGFFDSWGQGTLVTVSSASTKGPSVFPLAPCSRSTSESTAALGCLVKDYFPEPVTVSWNSGALTSGVHTFPAVLQSSGLYSLSSVVTVPSSNFGTQTYTCNVDHKPSNTKVDKTVERKCCVECPPCPAPELLGDDSVFLFPPKPKDTLMISRTPEVTCVVVDVSDEDGEVKFNWYVDGVEVHNAKTKPREEQYNSTYRVVSVLTVLHQDWLNGKEYKCKVSNKALPRPIEKTISKAKGQPREPQVYTLPPSRDELTKNQVSLTCLVKGFYPSDIAVEWESNGQPENNYKTTPPVLDSDGSFFLYSKLTVDKSRWQQGNVFSCSVMHEALHNHYTQKSLSLSPGK
light: DIQVTQSPSLLSASFGDKVTINCLVTQDITYYLSWYQQKSGQPPTLLIYNGNSLQSGVPSRFSGQYSGRTFTLSLSSLEPEDAGTYYCLQHYSVPFTFGGGTRLEIKRTVAAPSVFIFPPSDEQLKSGTASVVCLLNNFYPREAKVQWKVDNALQSGNSQESVTEQDSKDSTYSLSSTLTLSKADYEKHKVYACEVTHQGLSSPVTKSFNRGEC
notes: Chimeric anti-murine DR5 antibody, heavy chain constant region V11(H2), i.e. JAC1
B5: Anti-mDR5-hIgG1-GASDALIE (antibody)
heavy: QIQLQESGPGLVKPAQSLSLTCSITGFPITAGGYWWTWIRQFPGQKLEWMGYIYSSGSTNYNPSIKSRISITRDTAKNQFFLQLNSVTTEEDTAIYYCARAGTSYSGFFDSWGQGTLVTVSSATTKGPSVFPLAPSSKSTSGGTAALGCLVKDYFPEPVTVSWNSGALTSGVHTFPAVLQSSGLYSLSSVVTVPSSSLGTQTYICNVNHKPSNTKVDKRVEPKSCDKTHTCPPCPAPELLAGPDVFLFPPKPKDTLMISRTPEVTCVVVDVSHEDPEVKFNWYVDGVEVHNAKTKPREEQYNSTYRVVSVLTVLHQDWLNGKEYKCKVSNKALPLPEEKTISKAKGQPREPQVYTLPPSRDELTKNQVSLTCLVKGFYPSDIAVEWESNGQPENNYKTTPPVLDSDGSFFLYSKLTVDKSRWQQGNVFSCSVMHEALHNHYTQKSLSLSPGK
light: DIQVTQSPSLLSASFGDKVTINCLVTQDITYYLSWYQQKSGQPPTLLIYNGNSLQSGVPSRFSGQYSGRTFTLSLSSLEPEDAGTYYCLQHYSVPFTFGGGTRLEIKRTVAAPSVFIFPPSDEQLKSGTASVVCLLNNFYPREAKVQWKVDNALQSGNSQESVTEQDSKDSTYSLSSTLTLSKADYEKHKVYACEVTHQGLSSPVTKSFNRGEC
B6: Anti-hCD40-hIgG1(V11) (antibody)
heavy: not shown
light: DIQMTQSPSSVSASVGDRVTITCRASQGIYSWLAWYQQKPGKAPNLLIYTASTLQSGVPSRFSGSGSGTDFTLTISSLQPEDFATYYCQQANIFPLTFGGGTKVEIKRTVAAPSVFIFPPSDEQLKSGTASVVCLLNNFYPREAKVQWKVDNALQSGNSQESVTEQDSKDSTYSLSSTLTLSKADYEKHKVYACEVTHQGLSSPVTKSFNRGEC
notes: Human anti-human CD40 antibody, heavy chain constant region V11(H1)
B7: Anti-hCD40-hIgG2-SELF (antibody)
heavy: not shown
light: DIQMTQSPSSVSASVGDRVTITCRASQGIYSWLAWYQQKPGKAPNLLIYTASTLQSGVPSRFSGSGSGTDFTLTISSLQPEDFATYYCQQANIFPLTFGGGTKVEIKRTVAAPSVFIFPPSDEQLKSGTASVVCLLNNFYPREAKVQWKVDNALQSGNSQESVTEQDSKDSTYSLSSTLTLSKADYEKHKVYACEVTHQGLSSPVTKSFNRGEC
notes: Human anti-human CD40 antibody, heavy chain constant region G2-SELF, i.e. JAC3; also called anti-human CD40 antibody comprising JAC3
B8: Anti-hCD40-hIgG2-SE (antibody)
heavy: not shown
light: DIQMTQSPSSVSASVGDRVTITCRASQGIYSWLAWYQQKPGKAPNLLIYTASTLQSGVPSRFSGSGSGTDFTLTISSLQPEDFATYYCQQANIFPLTFGGGTKVEIKRTVAAPSVFIFPPSDEQLKSGTASVVCLLNNFYPREAKVQWKVDNALQSGNSQESVTEQDSKDSTYSLSSTLTLSKADYEKHKVYACEVTHQGLSSPVTKSFNRGEC
notes: Human anti-human CD40 antibody, heavy chain constant region G2-SE
B9: Anti-hCD40-hIgG2-HDPG (antibody)
heavy: not shown
light: DIQMTQSPSSVSASVGDRVTITCRASQGIYSWLAWYQQKPGKAPNLLIYTASTLQSGVPSRFSGSGSGTDFTLTISSLQPEDFATYYCQQANIFPLTFGGGTKVEIKRTVAAPSVFIFPPSDEQLKSGTASVVCLLNNFYPREAKVQWKVDNALQSGNSQESVTEQDSKDSTYSLSSTLTLSKADYEKHKVYACEVTHQGLSSPVTKSFNRGEC
notes: Human anti-human CD40 antibody, heavy chain constant region G2-HDPG, i.e. JAC4; also called anti-human CD40 antibody comprising JAC4

From US20190263918A1 (SHANGHAI JIAO TONG UNIVERSITY SCHOOL OF MEDICINE, published 2019) come the findings set out here.

One experiment addresses T1, recombinant murine CD40 protein (murine, UniProt P27512 24-193, limits assumed).
T1 construct: Bought; coated on the ELISA plate; also called mouse CD40; mCD40
T1 sequence (looked up): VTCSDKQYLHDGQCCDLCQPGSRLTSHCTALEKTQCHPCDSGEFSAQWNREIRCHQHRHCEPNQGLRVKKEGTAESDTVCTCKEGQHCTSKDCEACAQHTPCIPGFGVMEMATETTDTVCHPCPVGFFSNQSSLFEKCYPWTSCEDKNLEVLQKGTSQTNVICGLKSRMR
In words: ELISA: plate coated with recombinant murine CD40, antibody in gradient dilutions, HRP-labelled goat anti-human IgG-Fc secondary antibody, A650. As to the method: For assay on anti-human CD40 antibodies, an ELISA plate was coated with recombinant human CD40 protein (Novoprotein Scientific Inc.) overnight at atmospheric temperature, blocked using 1% BSA at room temperature for 2 h, and then washed three times with PBST (0.05% Tween 20 in PBS). To each well was added […] gradient dilutions of the human agonistic CD40 antibody. The plate was incubated at room temperature for 1 h and washed four times with PBST. Then, 100 ng/ml biotinylated secondary antibody against human Igκ light chain was added, incubated at room temperature for 1 h and washed 4 times with PBST. SAV-HRP at an appropriate concentration was added, incubated at room temperature for 1 h. Then, chromogenic substrate was added to react for 5 minutes, and optical absorbance was determined at 650 nm.
For assay on anti-murine CD40 antibodies, the process was the same, expect that the plate was coated with recombinant murine CD40 protein (Novoprotein Scientific Inc.) and HRP-labeled goat anti-human IgG-Fc antibody was used as the secondary antibody.
On the technique in general: In an ELISA, binding on a coated surface is turned into a signal by an enzyme label.
By EC50 (read off the curve) is commonly meant the concentration at which the effect is half-maximal. With B1, the concentration for a half-maximal effect (EC50 (read off the curve)) was roughly 0.1 µg/mL.

A further experiment concerns the target T2, murine DR5 on MC38 cells (murine, UniProt Q9QZM4 53-381).
T2 construct: whole, on cells; also called mDR5
T2 sequence (looked up): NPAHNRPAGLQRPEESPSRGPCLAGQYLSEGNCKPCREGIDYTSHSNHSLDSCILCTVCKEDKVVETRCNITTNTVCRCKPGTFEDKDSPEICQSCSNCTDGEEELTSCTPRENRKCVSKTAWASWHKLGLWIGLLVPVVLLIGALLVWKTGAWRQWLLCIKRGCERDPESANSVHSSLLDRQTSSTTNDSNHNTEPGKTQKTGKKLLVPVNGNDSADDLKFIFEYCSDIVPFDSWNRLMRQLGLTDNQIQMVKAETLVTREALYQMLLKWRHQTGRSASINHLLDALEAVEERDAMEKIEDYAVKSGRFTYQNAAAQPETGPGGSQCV
In words: flow cytometry on MC38 cells, FITC goat anti-human antibody. As to the method: To detect the DR5 binding capacity of different anti-DR5 antibodies, MC38 cells were resuspended in ice-cold FACS buffer (PBS+0.5% FBS+2 mM EDTA+0.1% NaN3), to which 3.16-fold gradient dilutions of control and anti-DR5 antibody at concentrations ranging from 2 ng to 20 µg/mL were added, and the reaction was incubated at room temperature for 15 minutes. The system was washed twice with ice-cold FACS buffer, then flow-cytometry stained using FITC-labeled goat anti-human antibody (VECTOR FI-3080) on ice for 25 minutes in dark, which was then washed twice with FACS buffer and analyzed by flow-cytometry. For the antibodies, the DR5 binding capacity was positively correlated to FITC mean fluorescence intensity (MFI).
For B2, the binding result is listed as “binds”.
On the same count and under the same terms, the value for B3 was “binds”; that for B4 was “binds”; that for B5 was “binds”.

The target of the next experiment is T3, human FcγRIIA-R131 extracellular domain protein (human, UniProt P12318 34-217).
T3 construct: extracellular domain; SPR: His-tagged, immobilised; ELISA: biotinylated; also called hFcγRIIA-R131; CD32a
T3 sequence (looked up): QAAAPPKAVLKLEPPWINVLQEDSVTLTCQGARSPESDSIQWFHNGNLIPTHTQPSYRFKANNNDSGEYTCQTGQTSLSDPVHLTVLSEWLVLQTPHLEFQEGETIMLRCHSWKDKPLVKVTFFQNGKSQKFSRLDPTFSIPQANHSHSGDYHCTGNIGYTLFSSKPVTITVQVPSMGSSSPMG
In words: ELISA: plate coated with the anti-human CD40 antibody, biotinylated human FcγRIIA-R131 extracellular domain, streptavidin-HRP, A650 [lower FcγRIIA-R131 panel]. As to the method: The ELISA plate was coated with 100 μL antibody at an appropriate concentration overnight, supernatant being discarded. The plate was blocked with 1% BSA in PBS for 2 hours, followed by washing with PBST (PBS with 0.05% Tween 20). Then, biotinylated FcγR extracellular domain protein (Sino Biologic Inc., Beijing China) at a concentration as appropriate was added and incubated at room temperature for 1 hour, supernatant being discarded, followed by PBST wash. Streptavidin-HRP (BD Biosciences) was added and incubated at room temperature for 1 hour for detection of biotin protein. After removal of supernatant, developing solution was added to react for 20-40 minutes, and absorbance was determined at 650 nm (A650).
Turning to B6, the binding result is listed as “binds”.
Same read-out and setting: the value for B7 was “binds”; that for B8 was “binds”.
On to B9, for which the binding result is reported as “binds”.
